Reference: the supplement of paper PMC6757056
± gives the standard deviation of the averaged measurements.

B1: library; a variant is named by its letters at N, in order (parent)
chain: GCUGUCACCGGUGUAUUACCCUAGUGGUCGACCGGUCUGAUGAGUCUNNNNNNAGACGAAACAGC

Key:
hypoxanthine [1] = variants of: B1; test: FACS-Seq fitted mean relative fluorescence mCherry/BFP without ligand (log10 relative fluorescence); ligand: hypoxanthine (xanthine aptamer); higher = higher reporter protein expression; conditions: HEK293T, ligand present: no
Procedure, shortened: (§1)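 Fluorescence comes from a normal fit to bin counts, normalized against controls. HEK293T libraries lentivirally given a ribozyme-switch mCherry reporter and an EF1α-BFP marker were enriched, incubated 48 h with or without ligand, and sorted by mCherry/BFP into 6 bins. Bin genomic DNA was PCR-amplified, barcoded and sequenced on MiSeq. The log10(mCherry/BFP) mean was scaled to five spiked-in control ribozymes.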

hypoxanthine [2] = variants of: B1; test: normalized RNA/DNA level with ligand (relative to sTRSVctl = 100) (log10 (% of sTRSVctl)); ligand: hypoxanthine (xanthine aptamer); higher = less ribozyme self-cleavage, higher mRNA level; conditions: ligand concentration (+) RNA-Seq: 5 mM, HEK293T, reporter: mCherry (pCS4076), ligand present: yes
Procedure, shortened: (§2)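 For each 6-well well, 4 µg of library plasmid encoding mCherry-linked ribozyme switches, or eGFP-linked ones in some ligand experiments, was transfected into HEK293T. Any ligand was added 1 h before transfection, and RNA was extracted with EDTA 72 h after it, then reverse-transcribed, amplified, barcoded and sequenced. RNA level was obtained by dividing RNA reads by DNA reads, normalizing to a spiked-in non-cleaving sequence or to the top sequences, then scaling and log-transforming. The top set was 25 sequences, scaling was ×100 with log10, and ≥100 DNA reads were required.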

hypoxanthine [3] = variants of: B1; test: normalized RNA/DNA level without ligand (relative to sTRSVctl = 100) (log10 (% of sTRSVctl)); ligand: hypoxanthine (xanthine aptamer); higher = less ribozyme self-cleavage, higher mRNA level; conditions: HEK293T, reporter: mCherry (pCS4076), ligand present: no
Procedure, shortened: as §2

hypoxanthine [4] = variants of: B1; test: FACS-Seq fitted mean relative fluorescence mCherry/BFP with ligand (log10 relative fluorescence); ligand: hypoxanthine (xanthine aptamer); ligand concentration (+) FACS-Seq: 5 mM; higher = higher reporter protein expression; conditions: HEK293T, ligand present: yes
Procedure, shortened: as §1

Variant | FACS-Seq fitted mean (log10) (hypoxanthine [1]) | normalized RNA/DNA level with ligand (log10) (hypoxanthine [2]) | normalized RNA/DNA level without ligand (log10) (hypoxanthine [3]) | FACS-Seq fitted mean (log10) (hypoxanthine [4])
AUCGAG | 0.2633 ± 0.00067 | 1.793 ± 0.014 | 1.35 ± 0.044 | 0.4 ± 0.028
AUCGAU | 0.371 ± 0.032 | 1.9 ± 0.025 | 1.669 ± 0.0035 | 0.284 ± 0.033
AUCGAC | 0.449 ± 0.044 | 1.95 ± 0.063 | 1.81 ± 0.054 | 0.415 ± 0.12
GUGCCG | 0.6409 ± 0.0059 | 1.912 ± 0.0077 | 1.55 ± 0.025 | 0.557 ± 0.12
UUGAAA | 0.426 ± 0.1 | 1.953 ± 0.0063 | 1.77 ± 0.044 | 0.614 ± 0.07
UUGAAG | 0.35 ± 0.06 | 1.93 ± 0.077 | 1.64 ± 0.059 | 0.6894 ± 0.0024
CUGAUA | 0.486 ± 0.026 | 1.877 ± 0.003 | 1.7 ± 0.055 | 0.601 ± 0.13
CUCGGG | 0.547 ± 0.055 | 1.923 ± 0.0029 | 1.657 ± 0.0028 | 0.46 ± 0.0048
CUCGGC | 0.2237 ± 0.00057 | 1.97 ± 0.12 | 1.92 ± 0.093 | 0.24 ± 0.018
CUCGGU | -0.663 ± 0.081 | 1.94 ± 0.022 | 1.85 ± 0.041 | -0.785 ± 0.082
GUCUAA | 0.326 ± 0.054 | 1.94 ± 0.048 | 1.801 ± 0.0053 | 0.458 ± 0.0071
GUCUAG | 0.584 ± 0.051 | 1.87 ± 0.053 | 1.53 ± 0.044 | 0.604 ± 0.11
GUCAUG | 0.242 ± 0.025 | 1.9 ± 0.027 | 1.53 ± 0.025 | 0.491 ± 0.014
CUGAAG | 0.454 ± 0.056 | 1.92 ± 0.045 | 1.59 ± 0.032 | 0.669 ± 0.026
CUGAAA | 0.56 ± 0.015 | 1.93 ± 0.027 | 1.74 ± 0.018 | 0.587 ± 0.036
GUGAUG | 0.204 ± 0.049 | 1.81 ± 0.038 | 1.34 ± 0.019 | 0.686 ± 0.037
CUGCGA | -0.182 ± 0.027 | 1.98 ± 0.052 | 1.822 ± 0.01 | -0.114 ± 0.022
CUGCGC | 0.135 ± 0.0047 | 2 ± 0.033 | 1.92 ± 0.08 | 0.18 ± 0.029
GUGGAU | 0.3032 ± 0.0022 | 1.917 ± 0.019 | 1.74 ± 0.05 | 0.467 ± 0.024
GUGGAA | 0.0876 ± 0.0021 | 1.88 ± 0.031 | 1.61 ± 0.0033 | -0.0768 ± 0.16
UUGCGG | -0.08 ± 0.07 | 1.99 ± 0.062 | 1.91 ± 0.044 | -0.606 ± 0.083
AUGCGG | -0.0506 ± 0.036 | 1.752 ± 0.0084 | 1.31 ± 0.12 | 0.504 ± 0.014
AUGCGA | 0.0429 ± 0.015 | 1.89 ± 0.076 | 1.556 ± 0.0057 | 0.395 ± 0.06
UUGUAU | -0.614 ± 0.05 | 1.94 ± 0.077 | 1.93 ± 0.026 | -0.338 ± 0.072

Variant | FACS-Seq fitted mean (log10) (hypoxanthine [1]) | normalized RNA/DNA level with ligand (log10) (hypoxanthine [2]) | normalized RNA/DNA level without ligand (log10) (hypoxanthine [3]) | FACS-Seq fitted mean (log10) (hypoxanthine [4])
AUGAAU | 0.418 ± 0.023 | 1.907 ± 0.01 | 1.66 ± 0.027 | 0.644 ± 0.066
AUGAAG | -0.113 ± 0.019 | 1.73 ± 0.031 | 1.13 ± 0.053 | 0.639 ± 0.0078
AUGAAA | 0.631 ± 0.058 | 1.87 ± 0.021 | 1.7 ± 0.033 | 0.625 ± 0.011
AUGAAC | 0.618 ± 0.07 | 1.9 ± 0.025 | 1.73 ± 0.025 | 0.583 ± 0.02
UUCCAC | 0.451 ± 0.048 | 1.97 ± 0.077 | 1.88 ± 0.027 | 0.5314 ± 0.0026
AUGCCA | 0.0727 ± 0.02 | 1.91 ± 0.07 | 1.821 ± 0.018 | 0.158 ± 0.03
CUGGGG | 0.345 ± 0.011 | 1.86 ± 0.05 | 1.479 ± 0.0059 | 0.484 ± 0.061
CUCACU | 0.473 ± 0.021 | 1.99 ± 0.041 | 1.92 ± 0.05 | 0.419 ± 0.12
UUCGUA | 0.252 ± 0.0058 | 1.93 ± 0.064 | 1.87 ± 0.026 | 0.384 ± 0.035
AUCUAA | 0.268 ± 0.023 | 1.905 ± 0.019 | 1.78 ± 0.022 | 0.411 ± 0.03
UUCGAA | 0.708 ± 0.021 | 1.938 ± 0.0037 | 1.7 ± 0.045 | 0.716 ± 0.059
UUCGAU | 0.164 ± 0.024 | 1.88 ± 0.019 | 1.767 ± 0.00052 | 0.303 ± 0.0063
AUGGCG | 0.211 ± 0.015 | 1.894 ± 0.018 | 1.38 ± 0.075 | 0.691 ± 0.042
GUCCAC | -0.048 ± 0.034 | 1.94 ± 0.054 | 1.848 ± 0.0045 | 0.0349 ± 0.08
GUCCAG | 0.3111 ± 0.00085 | 1.863 ± 0.015 | 1.48 ± 0.054 | 0.723 ± 0.0074
GUCCAA | 0.669 ± 0.0074 | 1.89 ± 0.065 | 1.79 ± 0.035 | 0.655 ± 0.08
GUGCAA | 0.274 ± 0.033 | 1.904 ± 0.0021 | 1.69 ± 0.037 | 0.57 ± 0.059
GUGCAG | 0.0446 ± 0.026 | 1.739 ± 0.0069 | 1.3 ± 0.099 | 0.427 ± 0.039
GUGCAC | 0.5159 ± 0.0044 | 1.87 ± 0.046 | 1.672 ± 0.0021 | 0.536 ± 0.016
GUGCAU | -0.413 ± 0.2 | 1.91 ± 0.038 | 1.74 ± 0.018 | -0.852 ± 0.077
UUCGGU | 0.323 ± 0.015 | 1.93 ± 0.044 | 1.78 ± 0.036 | 0.492 ± 0.007
AUCCUC | -0.169 ± 0.0024 | 2.021 ± 0.0097 | 1.97 ± 0.04 | -0.394 ± 0.056
AUCCUG | 0.0565 ± 0.03 | 1.944 ± 0.013 | 1.54 ± 0.086 | 0.437 ± 0.048
UUGCCG | 0.171 ± 0.068 | 1.98 ± 0.039 | 1.83 ± 0.038 | 0.358 ± 0.006

Variant | FACS-Seq fitted mean (log10) (hypoxanthine [1]) | normalized RNA/DNA level with ligand (log10) (hypoxanthine [2]) | normalized RNA/DNA level without ligand (log10) (hypoxanthine [3]) | FACS-Seq fitted mean (log10) (hypoxanthine [4])
AUGUAU | -0.142 ± 0.082 | 1.925 ± 0.0046 | 1.73 ± 0.021 | 0.156 ± 0.0021
AUGUAA | 0.323 ± 0.0041 | 1.93 ± 0.036 | 1.68 ± 0.0086 | 0.279 ± 0.019
AUGUAC | 0.103 ± 0.13 | 1.893 ± 0.017 | 1.7 ± 0.026 | 0.149 ± 0.054
AUGUAG | -0.0834 ± 0.023 | 1.768 ± 0.0076 | 1.27 ± 0.1 | 0.176 ± 0.087
AUGAGG | -0.0108 ± 0.028 | 1.644 ± 0.0044 | 1.15 ± 0.056 | 0.252 ± 0.059
AUGAGA | 0.392 ± 0.088 | 1.85 ± 0.062 | 1.451 ± 0.0036 | 0.697 ± 0.0095
GUCUCG | 0.392 ± 0.059 | 1.94 ± 0.094 | 1.7 ± 0.022 | 0.575 ± 0.11
GUCUCU | 0.359 ± 0.039 | 1.97 ± 0.039 | 1.98 ± 0.092 | 0.302 ± 0.052
GUGGGA | -0.0656 ± 0.016 | 1.9229 ± 0.0017 | 1.68 ± 0.053 | 0.178 ± 0.067
GUGGGU | 0.152 ± 0.061 | 1.94 ± 0.021 | 1.79 ± 0.018 | 0.626 ± 0.031
GUGGGG | 0.0309 ± 0.01 | 1.841 ± 0.016 | 1.45 ± 0.029 | 0.399 ± 0.07
AUGACG | 0.0397 ± 0.012 | 1.807 ± 0.0069 | 1.354 ± 0.011 | 0.3727 ± 0.0035
AUGACA | 0.303 ± 0.11 | 1.909 ± 0.013 | 1.8 ± 0.021 | 0.344 ± 0.049
CUGUCA | 0.49 ± 0.048 | 2 ± 0.058 | 1.86 ± 0.037 | 0.439 ± 0.09
GUGAAG | 0.168 ± 0.0046 | 1.73 ± 0.0073 | 1.15 ± 0.072 | 0.591 ± 0.023
GUGAGA | -0.285 ± 0.036 | 1.86 ± 0.025 | 1.5664 ± 0.0011 | -0.146 ± 0.2
GUGAGG | 0.174 ± 0.029 | 1.7 ± 0.039 | 1.2 ± 0.026 | 0.598 ± 0.051
GUGAGC | 0.0785 ± 0.015 | 1.731 ± 0.017 | 1.15 ± 0.016 | 0.6585 ± 0.0046
GUGGUG | 0.0578 ± 0.012 | 1.83 ± 0.047 | 1.33 ± 0.043 | 0.546 ± 0.02
GUGGUA | 0.478 ± 0.079 | 1.95 ± 0.026 | 1.759 ± 0.016 | 0.585 ± 0.082
GUCCCG | 0.415 ± 0.0031 | 1.91 ± 0.0099 | 1.64 ± 0.12 | 0.511 ± 0.028
GUGUAA | 0.291 ± 0.061 | 1.85 ± 0.024 | 1.67 ± 0.049 | 0.495 ± 0.043
GUGUAU | 0.314 ± 0.018 | 1.91 ± 0.056 | 1.737 ± 0.017 | 0.33 ± 0.021
GUGUAG | 0.19 ± 0.04 | 1.76 ± 0.022 | 1.17 ± 0.065 | 0.6252 ± 0.0039
